# Data reported in article PMC10147376.
# Biological target: Flotillin A (FloA) tagged with hexa-histidine (floA-6xHis) (S. aureus Newman)
# Test: pull-down; Ni-NTA (IMAC) affinity chromatography of S. aureus Newman membranes solubilised in 50 mM Tris HCl pH 8, 250 mM NaCl, 1% DDM, 4°C; FloA-His held, IsdF-3xFLAG in the 50 mM imidazole eluate detected by anti-FLAG blot; control strain with untagged FloA WT set to 1; called co-immunoprecipitation by the paper
# Chain of Flotillin A (FloA) tagged with hexa-histidine (floA-6xHis) (S. aureus Newman) (A6QHB6 whole entry): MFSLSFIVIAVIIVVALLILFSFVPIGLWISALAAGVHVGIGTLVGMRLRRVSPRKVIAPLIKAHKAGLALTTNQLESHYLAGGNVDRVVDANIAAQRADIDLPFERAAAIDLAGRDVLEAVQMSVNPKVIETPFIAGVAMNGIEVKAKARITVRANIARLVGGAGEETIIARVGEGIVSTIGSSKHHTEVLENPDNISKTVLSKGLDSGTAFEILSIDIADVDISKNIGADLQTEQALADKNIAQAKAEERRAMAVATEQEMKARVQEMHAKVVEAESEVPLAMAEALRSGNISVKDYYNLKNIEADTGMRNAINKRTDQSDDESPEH
substance,measurement,value
IsdF with a triple FLAG tag (pRB474:isdF-3xFLAG) (from UniProt Q2FHU7 1-322) (natural protein),fold IsdF-3xFLAG signal in the Ni-NTA eluate against the strain with untagged FloA WT (set to 1),3 fold
